Experimental data: patent US20040054131A1
Where no end group is shown, it is not given here.

Target: FGFR1c extracellular domain-IgG fusion protein (human) (UniProt P11362)
Assay: BIAcore real-time kinetic analysis, immobilized FGFR1c ECD, no heparin; approximate apparent affinity

Sequence of FGFR1c extracellular domain-IgG fusion protein (human) (P11362 22-377): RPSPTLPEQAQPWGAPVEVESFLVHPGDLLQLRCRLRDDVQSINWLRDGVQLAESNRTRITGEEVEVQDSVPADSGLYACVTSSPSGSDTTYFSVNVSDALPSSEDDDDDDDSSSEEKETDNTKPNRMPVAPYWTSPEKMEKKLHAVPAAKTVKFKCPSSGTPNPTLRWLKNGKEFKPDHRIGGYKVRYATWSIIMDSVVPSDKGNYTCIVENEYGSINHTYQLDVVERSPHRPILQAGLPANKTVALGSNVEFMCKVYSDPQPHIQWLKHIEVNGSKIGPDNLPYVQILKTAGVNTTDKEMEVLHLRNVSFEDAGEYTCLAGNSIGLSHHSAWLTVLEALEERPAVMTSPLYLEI

B1: C19-Ig fusion protein (Fc fusion, part only; not given: linkers and human IgG1 Fc, not shown: a dimerising Fc or GST)
chain, part: AESGDDYCVLVFTDSAWTKICDWSHFRN
modifications: cysteine pairing not given here; also: homodimer, fused to Fc of human IgG1
- Kd: 90 nM
